# According to the Human Domainome abundance scans (Beltran et al. 2025):
# ± gives the uncertainty stated by the source.
# B1: Pyruvate dehydrogenase protein X component, mitochondrial, residues 181 to 227; numbered along this chain, O00330 (parent)
# chain: RFRLSPAARNILEKHSLDASQGTATGPRGIFTKEDALKLVQLKQTGK
# Variants of: B1
# Assay: abundance fitness (aPCA) (normalised: wild type 0, dead -1); higher = more abundant; growth selection in yeast, the domain comes from the species named
# Conditions: Homo sapiens
row,Variant,abundance fitness
1,RFRLSPAARNILEKHSGDASQGTATGPRGIFTKEDALKLVQLKQTGK [L17G],-0.575 ± 0.05
2,RFRLSPAARNILEKHSHDASQGTATGPRGIFTKEDALKLVQLKQTGK [L17H],-0.308 ± 0.12
3,RFRLSPAARNILEKHSFDASQGTATGPRGIFTKEDALKLVQLKQTGK [L17F],-0.635 ± 0.085
4,RFRLSPAARNILEKHSSDASQGTATGPRGIFTKEDALKLVQLKQTGK [L17S],-0.486 ± 0.057
5,RFRLSPAARNILEKHSLDASQGEATGPRGIFTKEDALKLVQLKQTGK [T23E],0.067 ± 0.055
6,RFRLSPAARNILEKHSLDASQGQATGPRGIFTKEDALKLVQLKQTGK [T23Q],-0.24 ± 0.087
7,RFRLSPAARNILEKHSLDASQGRATGPRGIFTKEDALKLVQLKQTGK [T23R],-0.237 ± 0.045
8,RFRLSPAARNILEKHSLDASQGTATGPRGIFTKEDWLKLVQLKQTGK [A36W],-1.02 ± 0.12
9,RQRLSPAARNILEKHSLDASQGTATGPRGIFTKEDALKLVQLKQTGK [F2Q],-0.679 ± 0.13
10,RGRLSPAARNILEKHSLDASQGTATGPRGIFTKEDALKLVQLKQTGK [F2G],-0.535 ± 0.04
11,RMRLSPAARNILEKHSLDASQGTATGPRGIFTKEDALKLVQLKQTGK [F2M],0.137 ± 0.081
12,RFRLSSAARNILEKHSLDASQGTATGPRGIFTKEDALKLVQLKQTGK [P6S],0.041 ± 0.044
13,RFRLSYAARNILEKHSLDASQGTATGPRGIFTKEDALKLVQLKQTGK [P6Y],-0.174 ± 0.067
14,RFRLSPAARNILEKHSLDASQGTATGPRGIFTQEDALKLVQLKQTGK [K33Q],0.036 ± 0.098
15,RFRLSPAARNILEKHSLDASQGTATGPRGIFTAEDALKLVQLKQTGK [K33A],-0.113 ± 0.057
16,RFRLSPAARNILEKHSLDASQGTATGPRGIFTGEDALKLVQLKQTGK [K33G],-0.331 ± 0.05
17,RFRLSPAARNILEKHSLDASQGTATGPRGIFTKEDALKLVQLKQTGN [K47N],-0.751 ± 0.36
18,RFRLSPAARNILEKHSLDASQGTATGPRGIFTKEDALKLVQLKQTGQ [K47Q],0.539 ± 0.26
19,RFRLSPAARNILEKHSLDASQGTATGPRGIFTKEDALKLVQLKQTGM [K47M],0.312 ± 0.15
20,RFRLSPAARNILEKHNLDASQGTATGPRGIFTKEDALKLVQLKQTGK [S16N],0.018 ± 0.087
21,RFRLSPAARNILEKHLLDASQGTATGPRGIFTKEDALKLVQLKQTGK [S16L],-0.667 ± 0.047
22,RFRLSPAARNILEKHPLDASQGTATGPRGIFTKEDALKLVQLKQTGK [S16P],-0.281 ± 0.057
23,RFRLSPAARNILEKHWLDASQGTATGPRGIFTKEDALKLVQLKQTGK [S16W],-0.699 ± 0.051
24,RFRLSPAARNILEKHSLDASQGTATGPVGIFTKEDALKLVQLKQTGK [R28V],-0.456 ± 0.068
25,RFRLSPAARNICEKHSLDASQGTATGPRGIFTKEDALKLVQLKQTGK [L12C],-0.019 ± 0.067
26,RFRLSPAARNISEKHSLDASQGTATGPRGIFTKEDALKLVQLKQTGK [L12S],-0.361 ± 0.053
27,RFRLSPAARNIYEKHSLDASQGTATGPRGIFTKEDALKLVQLKQTGK [L12Y],-1.16 ± 0.3
28,RFRLSPAARNILEKHSLDASQGTATGPRGIFTKEDALKFVQLKQTGK [L39F],-0.746 ± 0.18

row,Variant,abundance fitness
1,RFRLSPAARNILEKHSLDASQGTATGPRGIFTKEDALKVVQLKQTGK [L39V],-0.315 ± 0.074
2,RFRLSPAARNILEKHSLDASQGTATGPRGIFTKEDALKNVQLKQTGK [L39N],0.065 ± 0.094
3,RFRLSPAARNILEKHSLDASQGTATGPRGIFTKEDALKPVQLKQTGK [L39P],-0.348 ± 0.086
4,RFRLSPAARNILEKHSLDASQGTATGPRGIFTKEDALKLVQLKQVGK [T45V],-0.156 ± 0.053
5,RFRLSPAARNILEKHSLMASQGTATGPRGIFTKEDALKLVQLKQTGK [D18M],-0.394 ± 0.058
6,RFRLSPAARNILEKHSLSASQGTATGPRGIFTKEDALKLVQLKQTGK [D18S],-0.393 ± 0.058
7,RFRLSPAARNILEKHSLDASQGTATGPRGRFTKEDALKLVQLKQTGK [I30R],-0.413 ± 0.067
8,RFRLSPAARNILEKHSLDASQGTATGPRGNFTKEDALKLVQLKQTGK [I30N],-0.268 ± 0.061
9,RFRLSPAARNILEKHSLDASQGTATGPRGSFTKEDALKLVQLKQTGK [I30S],-0.145 ± 0.065
10,RFRLSPAARNILEKHSLDASQGTATGGRGIFTKEDALKLVQLKQTGK [P27G],-0.491 ± 0.057
11,RFRLSPAARNILEKHSLDASQGTATGNRGIFTKEDALKLVQLKQTGK [P27N],-0.426 ± 0.059
12,RFRLSPAARNILEKHSLDASQGTATGLRGIFTKEDALKLVQLKQTGK [P27L],-0.599 ± 0.069
13,RFRLSPAARNILEKHSLDASQGTATSPRGIFTKEDALKLVQLKQTGK [G26S],-0.608 ± 0.068
14,RFRLSPAARNILEKHSLDASQGTATCPRGIFTKEDALKLVQLKQTGK [G26C],-0.903 ± 0.12
15,RFRLSPAARNILEKHSLDASQGTATNPRGIFTKEDALKLVQLKQTGK [G26N],-0.505 ± 0.096
16,RFRNSPAARNILEKHSLDASQGTATGPRGIFTKEDALKLVQLKQTGK [L4N],0.049 ± 0.092
17,RFRSSPAARNILEKHSLDASQGTATGPRGIFTKEDALKLVQLKQTGK [L4S],-0.167 ± 0.062
18,RFRISPAARNILEKHSLDASQGTATGPRGIFTKEDALKLVQLKQTGK [L4I],0.245 ± 0.074
19,RFRQSPAARNILEKHSLDASQGTATGPRGIFTKEDALKLVQLKQTGK [L4Q],-0.357 ± 0.083
20,RFRLSPAARNILEKHSLDASQGTAIGPRGIFTKEDALKLVQLKQTGK [T25I],-0.668 ± 0.13
21,RFRLSPAARNILEKHSLDASQGTAKGPRGIFTKEDALKLVQLKQTGK [T25K],-0.414 ± 0.1
22,IFRLSPAARNILEKHSLDASQGTATGPRGIFTKEDALKLVQLKQTGK [R1I],-0.317 ± 0.36
23,AFRLSPAARNILEKHSLDASQGTATGPRGIFTKEDALKLVQLKQTGK [R1A],0.02 ± 0.23
24,TFRLSPAARNILEKHSLDASQGTATGPRGIFTKEDALKLVQLKQTGK [R1T],-1.29 ± 0.45
25,RFRLSPAERNILEKHSLDASQGTATGPRGIFTKEDALKLVQLKQTGK [A8E],-0.183 ± 0.055
26,RFRLSPAYRNILEKHSLDASQGTATGPRGIFTKEDALKLVQLKQTGK [A8Y],-0.902 ± 0.063
27,RFRLSPAARNILEKHSLDASQGTATGPRGIFLKEDALKLVQLKQTGK [T32L],-0.553 ± 0.097
